Laboratory results taken from paper PMC8221081.

Target: Gankyrin (Gank) (UniProt Q9Z2X2)
Assay: Gank IP, C/EBPα Western blot
Conditions: reference: wild-type mice, DEN-treated; sites S193

For “C/EBPα (from UniProt P53566) C/EBPα-S193A mice, DEN-treated”, the “binding against the reference” value was “lost”.
